Positions of bridges follow the written chain, without caps; N, C: chain ends. No end group written: not given here.
How the values were obtained:
CAT2 transcript = conditions: exogenous application; cited from earlier work
From the text: It is also conceivable that modulation of CAT2 activity by AtPNP-A may not only have implications for plant biotic stress tolerance but may also result in changes in responses to abiotic stress. Activity of CAT2 is required for decomposition of photorespiration-derived H2O2 preventing redox perturbation under ambient growth conditions[59] while CAT2 deficiency causes a defective photorespiration phenotype including suppressed growth[58],[59] and accumulation of H2O2 in leaves. During senescence suppression of CAT2 function, mediated by G-BOX BINDING FACTOR1 (GBF1)[76], decreases CAT2 activ ...

[1] = molecular target: T1, bovine liver catalase (CAT) (bovine, UniProt P00432 1-527); assay: SPR; Biacore T100, 20 °C; bovine liver CAT immobilised by amine coupling on a CM5 chip; pAtPNP-A at 3.78 μM and consecutive twofold dilutions, 11 injections, flow 100 μL/min; regeneration with glycine pH 2.0; kinetic fit with mass transfer term; conditions: both partners purified
T1 construct: catalase from bovine liver, Sigma C-40; also called bovine CAT; CAT from bovine liver; source: bought: Sigma (C-40)
T1 sequence (looked up): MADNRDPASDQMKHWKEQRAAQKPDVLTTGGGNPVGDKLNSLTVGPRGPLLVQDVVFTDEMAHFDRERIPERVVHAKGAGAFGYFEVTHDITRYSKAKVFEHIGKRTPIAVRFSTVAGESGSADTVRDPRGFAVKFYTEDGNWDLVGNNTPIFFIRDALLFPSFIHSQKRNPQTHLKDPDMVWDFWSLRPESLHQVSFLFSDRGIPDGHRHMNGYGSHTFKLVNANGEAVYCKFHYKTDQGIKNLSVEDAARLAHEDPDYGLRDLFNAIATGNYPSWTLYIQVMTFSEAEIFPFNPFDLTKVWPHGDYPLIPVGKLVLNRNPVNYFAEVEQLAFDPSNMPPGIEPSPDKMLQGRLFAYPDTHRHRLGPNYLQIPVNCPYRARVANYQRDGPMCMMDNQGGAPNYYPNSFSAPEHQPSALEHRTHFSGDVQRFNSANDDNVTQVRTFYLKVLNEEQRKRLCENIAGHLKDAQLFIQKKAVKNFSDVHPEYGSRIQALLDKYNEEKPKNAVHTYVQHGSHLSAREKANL

rCAT2 [2] = assay: SPR of CAT2 and AtPNP-A recombinant proteins, CM5 chip, both configurations; format: binding, Arabidopsis thaliana; conditions: amine coupling, 20 °C
Protocol: N-terminally 6xHis-tagged AtPNP-A and CAT2 proteins were expressed in BL21 (DE3) One Shot E. coli cells (Life Technologies), purified by affinity chromatography with Ni–NTA beads (Qiagen) and HisTrap HP column (GE Healthcare Lifesciences) as described in[21]. The purity of preparations was verified on 12.5% SDS-PAGE, stained with Coomassie Brilliant Blue (Bio-Rad). Protein identities were confirmed in MS analysis, and protein concentration was determined according to the method of Bradford using BSA as a standard.
SPR experiments were performed at 20 °C on Biacore T100 instrument operated using Biacore T100 control software (version 2.0.2, GE Healthcare Lifesciences) using Series S CM5 or NTA sensor chips as described in[21]. Kinetic analyses were performed at the flow of 100 μL min^−1 with pAtPNP-A (at 3.78 μM and consecutive twofold dilutions; 11 injections included) employed as a ligand and bovine liver CAT (C-40; Sigma) used as an analyte and immobilized on the active surface of the Series S CM5 sensor chip with amine coupling kit, while the surface regeneration was done with solution of glycine, pH 2.0, and the final sensorgram was generated with Scrubber (BioLogic Software Pty Ltd).
Supplementary Figure S3. In vitro association of AtPNP-A and CAT2 recombinant proteins.
(a) Recombinant protein preparations used in SPR analyses. […]

[3] = tested on: A. thaliana (Col-0) mesophyll cell protoplasts; assay: Mesophyll cell protoplast swelling (volume); format: cell-based, Arabidopsis thaliana; conditions: 100 nM peptide or 1 μg mL^−1 rAtPNP-A, 0.4 M mannitol, 20 min, room temperature, n = 50, P < 0.0001
From the text: Peptides containing amino acid sequence of the active region of AtPNP-A and corresponding scrambled peptides, having the same amino acid composition but in a randomized order (Fig. 1a), with or without C-terminal biotin tag, were synthesized by GenScript (Piscataway, USA) at the purity level > 95% verified with HPLC and their biological activity was verified as described previously.
Figure 1 Biologically active peptide containing the active region of AtPNP-A protein binds to CAT2. (a) Domain organization of AtPNP-A and the amino acid sequences of C-terminally biotinylated peptides used in affinity chromatography-based experiments—a peptide containing the active site of AtPNP-A (indicated as pAtPNP-A) or the corresponding scrambled peptide (indicated as pScr). Cysteine residues forming a disulfide bond, characteristic to natriuretic peptide (NP)-like molecules, are underlined. SP, signal peptide. (b) Assaying biological activity of the AtPNP-A peptide (pAtPNP-A) and purified recombinant protein (rAtPNP-A). […] In each treatment, 50 randomly selected protoplasts with diameter > 20 µm were included in quantitative analysis (scale bar = 20 µm). Protoplast volume was measured and the data obtained from an exemplar experiment are plotted. […]

CAT = assay: Total CAT activity in protein extracted from WT seedlings; format: biochemical, Arabidopsis thaliana; conditions: 1 nM
Protocol: (§1) Enzymatic activity of CAT isozymes and total CAT activities of protein extracted from WT and atpnp-a or cat2-2 mutant lines, when indicated sprayed with 1 nM pAtPNP-A or pScr 20 min before harvesting, were determined zymographically and spectrophotometrically, as described in[56]. Relative quantification of intensity of bands corresponding to different CAT isoforms was performed with ImageJ version 1.48 (https://imagej.nih.gov/ij/). Enzymatic activity of the rCAT2 in the presence of absence of 100 nM rAtPNP-A, pAtPNP-A or pScr were determined with the use of Amplex Red catalase assay kit (Invitrogen) according to the manufacturer’s instructions.
(§2) Figure 3 AtPNP-A directly interacts with CAT2 to modulate its enzymatic activity in vitro. (a) Zymogram depicting changes in the enzymatic activity of CAT isoforms extracted from wild type (WT) or cat2-2 knockout mutant seedlings in response to 1 nM pAtPNP-A or pScr. Densitometric semi-quantification of bands corresponding to CAT2, normalized to the loading control (dark-coloured band on zymogram) for WT samples treated with 1 nM pAtPNP-A or pScr (mean ± SD, Student’s t-test, n = 3, P < 0.05). […] (b) Total CAT activity in protein extracted from WT seedlings assayed with Amplex Red catalase assay kit in the presence of 1 nM pAtPNP-A, rAtPNP-A, or pScr. […] (c) Enzymatic activity of rCAT2 in the presence of 100 nM pAtPNP-A, rAtPNP-A, or pScr.

rCAT2 [4] = assay: Enzymatic activity of rCAT2, Amplex Red catalase assay; format: biochemical, Arabidopsis thaliana; conditions: 100 nM, Amplex Red catalase assay kit; three independent experiments, P < 0.01
Protocol: as §1, §2

CAT2 = assay: Bimolecular fluorescence complementation (BiFC); format: cell-based, Arabidopsis thaliana; conditions: chloroplasts of tobacco leaf protoplasts, NeYFP/CeYFP fusions, mean ± SEM, n = 30, P < 0.0001
From the text: The full-length A. thaliana AtPNP-A (At2g18660) coding region entry plasmid pENTRYAtPNP-A[46] and pCR8/GW-TOPOCAT2 were recombined separately with both pSITE-nEYFP-C1 [GenBank Accession Number GU734651] and pSITE-cEYFP-C1 [GenBank Accession Number GU734652] to create pNeYFP-AtPNP-A, pCeYFP-AtPNP-A, pNeYFP-CAT2 and pCeYFP-CAT2, respectively. Each plasmid has either the N-terminal (NeYFP) or C-terminal (CeYFP) fragment of eYFP followed by either AtPNP-A or CAT2 coding region driven by the 35S plant expression promoter. After sequence was confirmed each plasmid was transformed separately into Agrobacterium tumefaciens strain GV3101 (pMP90). Tobacco leaves were infiltrated as previously described in[50]. Briefly, A. tumefaciens strains grown in 2YT medium were harvested by centrifugation and resuspended in infiltration medium (10 mM MES pH 5.6, 10 mM MgCl2, 150 µM acetosyringone) to a final OD600 of 0.2. Equal volumes of infiltration media containing relevant BiFC strains were mixed and infiltrated into the underside of tobacco leaves using a needleless syringe. Leaves were harvested after 3 days to isolate protoplasts following[51] and then immediately imaged.
BiFC images were captured at the La Trobe University LIMS BioImaging Facility using a LSM 510 confocal laser scanning microscope (Zeiss), with a × 40/1.2 water immersion objective. The natural red autofluorescence of chlorophyll was used as a marker for chloroplasts. Excitation/emission wavelengths were 488/505–530 nm for YFP and 561/650 nm long pass for red fluorescence. At least three images containing one or more protoplasts were taken for each of the plasmid construct combinations. Each image captured three separate filter scans, including YFP, red fluorescence and bright field. Post-processing of images was performed with ImageJ version 1.48 software (https://imagej.nih.gov/ij/). For each image the contrast for each panel was set at automatic contrast. A merged image was generated for reference with a 10 µm scale bar. The red fluorescence only panel was used to encircle ten chloroplasts as region of interest (ROI), then the YFP fluorescence (BiFC) calculated for each ROI was divided by the red fluorescence calculated for the same ROI. All BiFC/red fluorescence points were plotted using GraphPadPrism7 (GraphPadSoftware). Mean and standard error were calculated for each BiFC combination. All statistical analyses were performed using GraphPadPrism7.
Figure 4 AtPNP-A interacts with CAT2 in vivo. […] Exemplar merged images of protoplasts isolated from a leaf infiltrated with different combinations of N- or C-terminally tagged CAT2 and AtPNP-A are shown. (g) BiFC/Red fluorescence chloroplast analysis with mean ± SEM in pink.

Q: With `O=C(O)c1ccccc1O` [SA] as the molecule, how does the CAT2 transcript (CAT2 transcript) read?
A: Increases in CAT2 transcript

B1: synthetic peptide containing the active region of AtPNP-A (amino acids 33-66) (peptide)
peptide: PYTRSACYGTQRETLVVGVKNNLWQNGRACGRRY
modifications: disulfide 7-30 (inferred); also: synthesized with or without C-terminal biotin
notes: active region of Arabidopsis thaliana plant natriuretic peptide A (AtPNP-A), amino acids 33-66; also called pAtPNP-A; AtPNP-A peptide; source: synthetic peptide (GenScript, purity > 95%)
Q: What does the source list for B1?
A: koff [1]: 0.000941 s⁻¹; kon [1]: 10900 M⁻¹ s⁻¹

B2: rAtPNP-A: N-terminally 6xHis-tagged AtPNP-A expressed in BL21 (DE3) One Shot E. coli cells (protein)
chain: AQGKAVYYDPPYTRSACYGTQRETLVVGVKNNLWQNGRACGRRYRVRCIGATYNFDRACTGRTVDVKVVDFCREPCNGDLNLSRDAFRVIANTDAGNIRVVYTPI
modifications: left off: His6, N-terminal, state not stated
notes: N-terminally 6xHis-tagged AtPNP-A expressed in BL21 (DE3) One Shot E. coli cells
Q: What does the source list for B2?
A: SPR binding of recombinant AtPNP-A to CAT2 (rCAT2 [2]): bind specifically to CAT2; Protoplast swelling response (volume) [3]: comparable to that elicited by an equimolar amount of the recombinant AtPNP-A (rAtPNP-A); Total CAT activity of protein extracts (CAT; WT seedling protein, Amplex Red kit, mean ± SD, n = 3, P < 0.05): elevated total CAT activity; H2O2 breakdown by WT seedling protein extract (CAT; total protein extracted from WT seedlings, n = 3): more rapid H2O2 breakdown; In vitro enzymatic activity of rCAT2 (rCAT2 [4]): significantly enhanced

B3: CeYFP-AtPNP-A: C-terminal (CeYFP) fragment of eYFP followed by AtPNP-A coding region (protein)
chain: B2 chain
modifications: left off: CeYFP (C-terminal fragment of eYFP), N-terminal, kept
Q: Which results are given for B3?
A: BiFC / Red fluorescence signal, interaction with CAT2 (CAT2): significantly higher; BiFC / Red fluorescence signal, interaction with CAT2 (CAT2; listed as CeYFP-tagged AtPNP-A): greatest BiFC / Red fluorescence signal

B4: NeYFP-fused AtPNP-A: N-terminal (NeYFP) fragment of eYFP followed by AtPNP-A coding region (protein)
chain: B2 chain
modifications: left off: NeYFP (N-terminal fragment of eYFP), N-terminal, kept
Q: For B4, which “BiFC / Red fluorescence signal, interaction with CAT2” value (CAT2) is on record?
A: Lower BiFC/fluorescence signal

Source: paper PMC7665192, “A natriuretic peptide from Arabidopsis thaliana (AtPNP-A) can modulate catalase 2 activity” (Scientific Reports, 2020)
